Results: patent US9725708B2, “Methods of modulating ubiquitin ligase activity” (Board of Supervisors of Louisiana State University and …, priority 2012, dated 2017)
“Also recorded” adds a separate entry of the source.

Columns and labels:
[1] = molecular target: T1, E6APF727D (Homo sapiens, UniProt Q05086, F750D); test: E6 rescue of 125I-polyubiquitin chain formation by E6APF727D; assay type: biochemical; conditions: 20 nM E6 protein
T1 construct: made in house; host or cells: E. coli
T1 sequence (Q05086 1-872 isoform Q05086-3 F747D): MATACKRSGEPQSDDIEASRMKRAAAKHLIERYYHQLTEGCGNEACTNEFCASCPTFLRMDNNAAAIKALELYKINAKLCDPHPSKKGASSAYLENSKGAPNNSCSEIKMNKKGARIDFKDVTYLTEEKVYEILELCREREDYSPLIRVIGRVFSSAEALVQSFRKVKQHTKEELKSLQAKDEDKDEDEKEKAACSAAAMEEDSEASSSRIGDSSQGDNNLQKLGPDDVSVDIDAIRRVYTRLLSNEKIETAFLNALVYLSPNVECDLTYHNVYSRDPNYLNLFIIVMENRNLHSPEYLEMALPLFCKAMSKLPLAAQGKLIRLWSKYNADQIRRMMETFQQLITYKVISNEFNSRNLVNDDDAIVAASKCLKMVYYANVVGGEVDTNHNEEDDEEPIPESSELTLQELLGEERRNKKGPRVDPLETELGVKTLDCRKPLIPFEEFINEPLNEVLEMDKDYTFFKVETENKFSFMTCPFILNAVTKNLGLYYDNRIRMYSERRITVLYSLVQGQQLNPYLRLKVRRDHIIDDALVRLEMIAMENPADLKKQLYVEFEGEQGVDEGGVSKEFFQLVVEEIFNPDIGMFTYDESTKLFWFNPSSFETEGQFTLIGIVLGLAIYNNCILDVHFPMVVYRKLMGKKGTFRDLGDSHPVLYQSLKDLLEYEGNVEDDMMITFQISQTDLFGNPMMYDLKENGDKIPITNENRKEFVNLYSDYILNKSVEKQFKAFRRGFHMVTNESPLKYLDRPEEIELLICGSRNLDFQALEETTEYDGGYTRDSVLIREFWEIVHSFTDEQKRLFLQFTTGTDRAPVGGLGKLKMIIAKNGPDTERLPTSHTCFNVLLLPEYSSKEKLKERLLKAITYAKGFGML
Protocol: (§1) E6AP-catalyzed ^125I-Ubiquitin Conjugation Assay: The E3 ligase activity of recombinant E6AP ligase was quantitated in kinetic assays under initial velocity conditions (Ronchi et al., (2013) J. Biol. Chem. 288, 10349-10360, Ronchi & Haas (2012) Methods Mol. Biol. 832: 197-218). Rates of E6AP-catalyzed ^125I-polyubiquitin chain formation were measured at 37° C. in incubations of 25-μl final volume containing 50 mM Tris-HCl (pH 7.5), 1 mM ATP, 10 mM MgCl2, 1 mM DTT, 10 mM creatine phosphate, 1 IU of creatine phosphokinase, 5 μM ^125I-ubiquitin (approximately 1.5×10^4 cpm/pmol), 50 nM human Uba1, and the indicated concentrations of UbcH7 and E6AP ligase (Siepmann et al., (2003) J. Biol. Chem. 278: 9448-9457; Baboshina et al., (2001) J. Biol. Chem. 276: 39428-39437). […]
(§2) Polyubiquitin chain formation was measured by excising lanes between the top of the resolving gel and the top of the stacker gel, representing anchored and free ^125I-polyubiquitin chains, respectively, and quantitating associated ^125I-ubiquitin by γ-counting. Absolute rates of ^125I-polyubiquitin chain formation were calculated from the associated radioactivity and the corrected specific radioactivity for ^125I-ubiquitin. Datum points represent single assay determinations, and complete data sets were evaluated by non-linear regression analysis using GraFit version 5.0 (Erithicus). […]

[2] = molecular target: T2, E6APR626A (Homo sapiens, UniProt Q05086, R649A); test: E6 rescue of 125I-polyubiquitin chain formation by E6APR626A; assay type: biochemical; conditions: 20 nM E6 protein
T2 construct: made in house; host or cells: E. coli
T2 sequence (Q05086 1-872 isoform Q05086-3 R646A): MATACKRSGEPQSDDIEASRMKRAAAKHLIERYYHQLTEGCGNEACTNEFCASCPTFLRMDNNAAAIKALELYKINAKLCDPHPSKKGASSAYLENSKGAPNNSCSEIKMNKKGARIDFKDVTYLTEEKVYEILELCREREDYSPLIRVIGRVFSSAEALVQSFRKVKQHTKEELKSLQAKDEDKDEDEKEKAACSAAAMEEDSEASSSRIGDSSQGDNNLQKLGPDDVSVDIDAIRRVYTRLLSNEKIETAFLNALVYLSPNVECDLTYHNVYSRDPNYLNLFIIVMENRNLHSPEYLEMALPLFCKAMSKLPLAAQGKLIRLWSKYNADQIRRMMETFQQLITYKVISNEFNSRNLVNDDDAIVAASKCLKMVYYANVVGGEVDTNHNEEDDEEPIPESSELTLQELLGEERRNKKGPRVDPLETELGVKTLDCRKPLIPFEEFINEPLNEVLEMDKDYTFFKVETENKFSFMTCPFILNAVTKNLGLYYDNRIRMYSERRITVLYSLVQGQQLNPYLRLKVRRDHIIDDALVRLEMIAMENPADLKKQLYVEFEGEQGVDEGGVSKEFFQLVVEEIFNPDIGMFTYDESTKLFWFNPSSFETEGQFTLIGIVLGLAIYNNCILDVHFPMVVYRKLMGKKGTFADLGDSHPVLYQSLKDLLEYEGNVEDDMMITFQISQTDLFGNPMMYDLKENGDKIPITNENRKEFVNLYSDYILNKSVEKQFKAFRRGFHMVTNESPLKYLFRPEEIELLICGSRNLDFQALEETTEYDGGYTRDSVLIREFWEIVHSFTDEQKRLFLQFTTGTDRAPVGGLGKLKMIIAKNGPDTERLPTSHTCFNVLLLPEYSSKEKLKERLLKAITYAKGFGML
Protocol: as §1, §2

B1: E6 protein: recombinant human papilloma virus 16 E6 protein, 158 amino acids (protein)
chain: MHQKRTAMFQDPQERPRKLPQLCTELQTTIHDIILECVYCKQQLLRREVYDFAFRDLCIVYRDGNPYAVCDKCLKFYSKISEYRHYCYSLYGTTLEQQYNKPLCDLLIRCINCQKPLCPEEKQRHLDKKQRFHNIRGRWTGRCMSCCRSSRTRRETQL
[1]
  effect on E6APF727D: significantly enhanced; also recorded: rescues the kcat defect
[2]
  increase in rate: 13 fold
